Assay [1] deals with T1, ABHD5-CFP (α-β hydrolase domain-containing 5 fused to CFP) (UniProt Q9DBL9 1-351).
T1 construct: α-β hydrolase domain-containing 5 (ABHD5, also known as CGI-58); also called CGI-58; source: HeLa cells, transiently transfected (Lipofectamine 3000), in live cells
T1 sequence (looked up): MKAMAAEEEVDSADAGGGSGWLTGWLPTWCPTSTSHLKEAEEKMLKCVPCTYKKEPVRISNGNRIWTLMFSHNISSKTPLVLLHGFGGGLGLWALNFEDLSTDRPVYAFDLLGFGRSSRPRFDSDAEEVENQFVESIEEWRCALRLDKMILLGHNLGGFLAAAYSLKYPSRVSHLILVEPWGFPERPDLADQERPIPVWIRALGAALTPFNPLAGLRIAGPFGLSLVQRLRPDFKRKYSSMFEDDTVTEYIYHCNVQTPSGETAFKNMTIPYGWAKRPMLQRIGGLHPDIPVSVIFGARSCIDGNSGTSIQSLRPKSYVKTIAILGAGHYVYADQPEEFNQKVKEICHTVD
Nature of the assay: FRET or BRET; phasor-based FLIM-FRET in live HeLa cells transiently co-transfected with a CFP donor (ATGL-CFP or ABHD5-CFP) and a YFP acceptor (PLIN5-YFP or PLIN5 S155A-YFP); 37°C, 5% CO2; before and after 20 μM forskolin. Particulars: partners not purified. (In general: Bioluminescence resonance energy transfer reports proximity on the nanometre scale.)

Assay [2] has as its target T2, ATGL-CFP (adipose triglyceride lipase fused to CFP) (UniProt Q8BJ56 1-486).
T2 construct: Adipose triglyceride lipase (ATGL); source: HeLa cells, transiently transfected (Lipofectamine 3000), in live cells
T2 sequence (looked up): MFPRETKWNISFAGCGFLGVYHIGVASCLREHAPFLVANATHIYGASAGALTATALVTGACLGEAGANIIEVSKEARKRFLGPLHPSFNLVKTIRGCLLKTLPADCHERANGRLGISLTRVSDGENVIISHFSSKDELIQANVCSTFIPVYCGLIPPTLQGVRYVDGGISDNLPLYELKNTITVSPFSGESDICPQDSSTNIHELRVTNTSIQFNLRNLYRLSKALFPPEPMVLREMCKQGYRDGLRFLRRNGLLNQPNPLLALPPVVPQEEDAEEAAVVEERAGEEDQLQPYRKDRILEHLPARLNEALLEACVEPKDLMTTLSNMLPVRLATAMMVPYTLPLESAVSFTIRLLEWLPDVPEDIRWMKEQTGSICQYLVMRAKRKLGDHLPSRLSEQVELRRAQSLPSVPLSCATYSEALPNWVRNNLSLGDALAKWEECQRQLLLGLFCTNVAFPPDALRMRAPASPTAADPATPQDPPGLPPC
The assay is described as above. Particulars: partners not purified.

Drawing on PMC7900760, “Perilipin 5 S155 phosphorylation by PKA is required for the control of hepatic lipid metabolism and glycemic control” (Journal of Lipid Research, 2021), this text covers FRET efficiency for 2 molecules.

B1: PLIN5-YFP (perilipin 5 fused to YFP) (natural protein, mouse, UniProt Q8BVZ1 1-463, looked up)
chain: MDQRGEDTTLAPHSRMSGDQTAQDPGSSLGELDQQNVVNRVVALPLVKATCTAVSSAYNSAKDRHPLLGSACRLAEHCVCSVTTCALDHAQPLLEHLQPQLATVNDLACRGLDKLEEKLPFLQQPSDMVVTSAKDTVAKSVTGMVDLAQRGRRWSGELRRSMSQAMDMVLGKSEKLVDRFLPMTEAELAVLAAEAEGPEVGTVEEQRQQQGYFVRLGSLSARLRHLAYEHSLGKLRQSKHRTQEMLAQLQETLELIQHMQRGASPSPTFHPPKTQELWGSWSPCLENGRSHSEVELETLALSRSLTLELQNAVDALAGCVRGLPPSAQAKVAEVQRSVDALQATFADAHCLGDVAPTALAEGRGSVARAHACVDEFLDLVLRAMPLPWLVGPFAPILVEQSEPLINLATCVDEVVGDPDPRWAHMDWPAQKRAWEAESADPGGQEAEPPRGQGKHTMMPELDF
notes: Perilipin 5 (PLIN5), murine; also called wild-type PLIN5; source: HeLa cells, transiently transfected (Lipofectamine 3000), in live cells
As for B1, the FRET efficiency amounted to 25% in assay [1] and 20% in assay [2].

B2: PLIN5 S155A-YFP (natural protein, mouse, UniProt Q8BVZ1 1-463, looked up)
chain: MDQRGEDTTLAPHSRMSGDQTAQDPGSSLGELDQQNVVNRVVALPLVKATCTAVSSAYNSAKDRHPLLGSACRLAEHCVCSVTTCALDHAQPLLEHLQPQLATVNDLACRGLDKLEEKLPFLQQPSDMVVTSAKDTVAKSVTGMVDLAQRGRRWAGELRRSMSQAMDMVLGKSEKLVDRFLPMTEAELAVLAAEAEGPEVGTVEEQRQQQGYFVRLGSLSARLRHLAYEHSLGKLRQSKHRTQEMLAQLQETLELIQHMQRGASPSPTFHPPKTQELWGSWSPCLENGRSHSEVELETLALSRSLTLELQNAVDALAGCVRGLPPSAQAKVAEVQRSVDALQATFADAHCLGDVAPTALAEGRGSVARAHACVDEFLDLVLRAMPLPWLVGPFAPILVEQSEPLINLATCVDEVVGDPDPRWAHMDWPAQKRAWEAESADPGGQEAEPPRGQGKHTMMPELDF
notes: Perilipin 5 (PLIN5), murine, with the phosphorylation-defective S155A mutation; also called phospho-mutant S155A; source: HeLa cells, transiently transfected (Lipofectamine 3000), in live cells
Consider B2, for which the figures for the FRET efficiency in assay [1] and in assay [2] were 25% and 20%, respectively.
